# Literature values in article PMC4225561.
# Target: Myo4p 27-residue fragment (Saccharomyces cerevisiae) (UniProt P32492)
# Assay: pull-down
# UniProt P32492, sequence (P32492 528-554): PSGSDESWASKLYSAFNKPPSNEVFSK
substance,measurement,value
She4p (from UniProt P51534),Kd,1000 nM
